This is an account of results in US8525237.

For assay [1], the target named is M13 bacteriophage incorporated into PEDOT nanowires (M13 bacteriophage). The assay can be described thus: electrical resistance of virus-PEDOT nanowire array in PBF.
Assay [2] has the same target. The assay can be described thus: electrical resistance of virus-PEDOT nanowire array in PBF, 99 nM antibody.

For the substance “Anti-M13 antibody (p-Ab, GE Healthcare Life Sciences)”, the limit of detection in assay [1] was found to be 20 nM. This substance also came in with an increase in the resistance (ΔR/R0) at 99 nM antibody in assay [2] of 40%.
